Results on three substances are retold here after IntAct's records for PubMed 24351927.

One test deals with 1433z_human YWHAZ (UniProt P63104).
For test [1], the target named is 1433g_rat Ywhag (UniProt P61983).
A further test addresses 1433t_human YWHAQ (UniProt P27348).
For test [2], the target named is 1433g_rat Ywhag (UniProt P61983). The source holds these as a separate data set.

UniProt P61983, sequence (P61983 whole entry): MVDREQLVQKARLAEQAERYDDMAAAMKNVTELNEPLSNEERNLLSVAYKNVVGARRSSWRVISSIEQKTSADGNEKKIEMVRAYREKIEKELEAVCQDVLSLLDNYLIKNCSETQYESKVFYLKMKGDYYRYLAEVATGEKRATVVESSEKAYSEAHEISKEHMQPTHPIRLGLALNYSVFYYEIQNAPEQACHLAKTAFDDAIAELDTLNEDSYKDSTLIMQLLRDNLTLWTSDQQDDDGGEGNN
UniProt P27348, sequence (P27348 whole entry): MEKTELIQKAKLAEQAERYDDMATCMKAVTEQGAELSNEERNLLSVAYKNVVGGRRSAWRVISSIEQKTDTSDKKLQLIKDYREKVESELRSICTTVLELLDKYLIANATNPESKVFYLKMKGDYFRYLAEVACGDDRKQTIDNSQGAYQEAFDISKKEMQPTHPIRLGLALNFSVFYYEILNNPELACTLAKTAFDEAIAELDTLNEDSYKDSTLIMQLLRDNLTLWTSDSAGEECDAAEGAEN
UniProt P63104, sequence (P63104 whole entry): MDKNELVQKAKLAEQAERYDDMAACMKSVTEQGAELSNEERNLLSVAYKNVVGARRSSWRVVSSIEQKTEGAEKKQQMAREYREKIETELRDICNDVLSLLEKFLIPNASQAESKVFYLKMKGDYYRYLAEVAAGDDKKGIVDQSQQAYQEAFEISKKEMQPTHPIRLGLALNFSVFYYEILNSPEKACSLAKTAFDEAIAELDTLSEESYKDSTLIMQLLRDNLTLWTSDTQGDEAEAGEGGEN

Take “Leucine-rich repeat serine/threonine-protein kinase 2 (Homo sapiens), Q5S007 R1441G”: the “effect of a mutation on the interaction” value with 1433z_human YWHAZ, with 1433g_rat Ywhag [1] and with 1433t_human YWHAQ was “disrupting interaction” throughout.
For the substance “Leucine-rich repeat serine/threonine-protein kinase 2 (Homo sapiens), Q5S007 S1443A;S1444A”, in the test with 1433g_rat Ywhag [2], the “effect of a mutation on the interaction” value is reported as “disrupting interaction”.
As to “Leucine-rich repeat serine/threonine-protein kinase 2 (Homo sapiens), Q5S007 S1444A”, the “effect of a mutation on the interaction” value with 1433z_human YWHAZ, with 1433t_human YWHAQ and with 1433g_rat Ywhag [2] was “disrupting interaction” in each case.
